From PMC4137108 come the findings set out here.

Assay [1] concerns the target Apaf-1 (human (endogenous in HeLa)) (UniProt O14727).
Assay [2] has the same target. The source holds these as a separate data set.

UniProt O14727, sequence (O14727 whole entry): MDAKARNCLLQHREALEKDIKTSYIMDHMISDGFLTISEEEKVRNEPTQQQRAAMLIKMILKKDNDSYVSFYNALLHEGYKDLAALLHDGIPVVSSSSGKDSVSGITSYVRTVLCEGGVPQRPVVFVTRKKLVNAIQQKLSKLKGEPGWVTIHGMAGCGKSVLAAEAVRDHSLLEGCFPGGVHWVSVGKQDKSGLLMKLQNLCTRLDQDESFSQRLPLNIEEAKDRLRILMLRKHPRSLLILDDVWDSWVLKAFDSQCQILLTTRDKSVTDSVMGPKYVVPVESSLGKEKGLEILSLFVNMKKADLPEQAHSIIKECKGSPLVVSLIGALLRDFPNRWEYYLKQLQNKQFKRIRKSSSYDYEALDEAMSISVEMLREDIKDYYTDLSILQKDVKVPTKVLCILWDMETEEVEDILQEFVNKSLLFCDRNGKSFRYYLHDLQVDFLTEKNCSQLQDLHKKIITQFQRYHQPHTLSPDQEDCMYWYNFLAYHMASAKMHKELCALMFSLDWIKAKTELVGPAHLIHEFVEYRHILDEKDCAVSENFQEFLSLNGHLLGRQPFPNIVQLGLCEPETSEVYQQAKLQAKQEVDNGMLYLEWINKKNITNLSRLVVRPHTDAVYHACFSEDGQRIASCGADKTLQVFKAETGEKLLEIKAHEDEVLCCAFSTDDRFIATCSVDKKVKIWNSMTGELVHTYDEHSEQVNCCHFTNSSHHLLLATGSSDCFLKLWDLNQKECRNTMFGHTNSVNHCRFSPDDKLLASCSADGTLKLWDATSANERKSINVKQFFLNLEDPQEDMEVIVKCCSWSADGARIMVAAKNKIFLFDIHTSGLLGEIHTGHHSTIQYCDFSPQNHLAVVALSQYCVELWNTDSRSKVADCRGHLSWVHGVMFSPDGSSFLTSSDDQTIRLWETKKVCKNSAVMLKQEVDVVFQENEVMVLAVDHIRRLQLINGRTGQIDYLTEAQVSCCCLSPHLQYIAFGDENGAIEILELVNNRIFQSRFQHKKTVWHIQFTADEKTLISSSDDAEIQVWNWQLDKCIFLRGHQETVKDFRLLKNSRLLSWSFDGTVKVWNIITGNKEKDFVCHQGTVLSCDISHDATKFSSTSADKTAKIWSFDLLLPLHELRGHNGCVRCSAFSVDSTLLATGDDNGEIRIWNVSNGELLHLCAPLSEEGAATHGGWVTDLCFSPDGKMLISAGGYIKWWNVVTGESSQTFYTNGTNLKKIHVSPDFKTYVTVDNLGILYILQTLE

In assay [1], “Cytochrome c from equine heart (from UniProt P00004 1-105) (natural protein)” gave a cell-free caspase 3 activation in HeLa cytosol (DEVD-pNA), relative to non-modified Cyt c (the reference itself) of 100% and a cell-free caspase 9 activation in HeLa cytosol (LEHD-pNA), relative to non-modified Cyt c (the reference itself) of 100%. In assay [2], this substance gave a relative caspase 3 activation in a cell-free system after precipitation of Cyt c with acetone (water-organic solvent interface) of 51% and a relative caspase 3 activation in a cell-free system after precipitation of Cyt c with acetonitrile (water-organic solvent interface) of 64%.
